Assay results as given in US20100015650.

Target: T1, BRB1 tyrosine kinase substrate peptide
T1 chain: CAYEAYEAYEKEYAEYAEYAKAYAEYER

B1: MET (protein)
chain: KKRKQIKDLGSELVRYDARVHTPHLDRLVSARSVSPTTEMVSNESVDYRATFPEDQFPNSSQNGSCRQVQYPLTDMSPILTSGDSDISSPLLQNTVHIDLSALNPELVQAVQHVVIGPSSLIVHFNEVIGRGHFGCVYHGTLLDNDGKKIHCAVKSLNRITDIGEVSQFLTEGIIMKDFSHPNVLSLLGICLRSEGSPLVVLPYMKHGDLRNFIRNETHNPTVKDLIGFGLQVAKGMKYLASKKFVHRDLAARNCMLDEKFTVKVADFGLARDMYDKEYYSVHNKTGAKLPVKWMALESLQTQKFTTKSDVWSFGVLLWELMTRGAPPYPDVNTFDITVYLLQGRRLLQPEYCPDPLYEVMLKCWHPKAEMRPSFSELVSRISAIFSTFIGEHYVHVNATYVNVKCVAPYPSLLSSEDNADDEVDTRPASFWETS
Signal to Noise ratio with BRB1 Peptide (TR-FRET kinase assay; kinase 0.5 nM): 24.2

B2: ROR1 (protein)
chain: CRNNQKSSSAPVQRQPKHVRGQNVEMSMLNAYKPKSKAKELPLSAVRFMEELGECAFGKIYKGHLYLPGMDHAQLVAIKTLKDYNNPQQWTEFQQEASLMAELHHPNIVCLLGAVTQEQPVCMLFEYINQGDLHEFLIMRSPHSDVGCSSDEDGTVKSSLDHGDFLHIAIQIAAGMEYLSSHFFVHKDLAARNILIGEQLHVKISDLGLSREIYSADYYRVQSKSLLPIRWMPPEAIMYGKFSSDSDIWSFGVVLWEIFSFGLQPYYGFSNQEVIEMVRKRQLLPCSEDCPPRMYSLMTECWNEIPSRRPRFKDIHVRLRSWEGLSSHTSSTTPSGGNATTQTTSLSASPVSNLSNPRYPNYMFPSQGITPQGQIAGFIGPPIPQNQRFIPINGYPIPPGYAAFPAAHYQPTGPPRVIQHCPPPKSRSPSSASGSTSTGHVTSLPSSGSNQEANIPLLPHMSIPNHPGGMGITVFGNKSQKPYKIDSKQASLLGDANIHGHTESMISAEL
Signal to Noise Ratio with BRB1 Peptide (TR-FRET kinase assay; kinase 20 nM): 1.1

B3: PDGFRβ (protein)
chain: QKKPRYEIRWKVIESVSSDGHEYIYVDPMQLPYDSTWELPRDQLVLGRTLGSGAFGQVVEATAHGLSHSQATMKVAVKMLKSTARSSEKQALMSELKIMSHLGPHLNVVNLLGACTKGGPIYIITEYCRYGDLVDYLHRNKHTFLQHHSDKRRPPSAELYSNALPVGLPLPSHVSLTGESDGGYMDMSKDESVDYVPMLDMKGDVKYADIESSNYMAPYDNYVPSAPERTCRATLINESPVLSYMDLVGFSYQVANGMEFLASKNCVHRDLAARNVLICEGKLVKICDFGLARDIMRDSNYISKGSTFLPLKWMAPESIFNSLYTTLSDVWSFGILLWEIFTLGGTPYPELPMNEQFYNAIKRGYRMAQPAHASDEIYEIMQKCWEEKFEIRPPFSQLVLLLERLLGEGYKKKYQQVDEEFLRSDHPAILRSQARLPGFHGLRSPLDTSSVLYTAVQPNEGDNDYIIPLPDPKPEVADEGPLEGSPSLASSTLNEVNTSSTISCDSPLEPQDEPEPEPQLELQVEPEPELEQLPDSGCPAPRAEAEDSFL
Signal to Noise ratio with BRB1 Peptide (TR-FRET kinase assay; kinase 0.25 nM): 4.7

B4: RET (protein)
chain: HCYHKFAHKPPISSAEMTFRRPAQAFPVSYSSSGARRPSLDSMENQVSVDAFKILEDPKWEFPRKNLVLGKTLGEGEFGKVVKATAFHLKGRAGYTTVAVKMLKENASPSELRDLLSEFNVLKQVNHPHVIKLYGACSQDGPLLLIVEYAKYGSLRGFLRESRKVGPGYLGSGGSRNSSSLDHPDERALTMGDLISFAWQISQGMQYLAEMKLVHRDLAARNILVAEGRKMKISDFGLSRDVYEEDSYVKRSQGRIPVKWMAIESLFDHIYTTQSDVWSFGVLLWEIVTLGGNPYPGIPPERLFNLLKTGHRMERPDNCSEEMYRLMLQCWKQEPDKRPVFADISKDLEKMMVKRRDYLDLAASTPSDSLIYDDGLSEEETPLVDCNNAPLPRALPSTWIENKLYGMSDPNWPGESPVPLTRADGTNTGFPRYPNDSVYANWMLSPSAAKLMDTFDS
Signal to Noise ratio with BRB1 Peptide (TR-FRET kinase assay; kinase 0.5 nM): 20.3

B5: BMX (protein)
chain: MDTKSILEELLLKRSQQKKKMSPNNYKERLFVLTKTNLSYYEYDKMKRGSRKGSIEIKKIRCVEKVNLEEQTPVERQYPFQIVYKDGLLYVYASNEESRSQWLKALQKEIRGNPHLLVKYHSGFFVDGKFLCCQQSCKAAPGCTLWEAYANLHTAVNEEKHRVPTFPDRVLKIPRAVPVLKMDAPSSSTTLAQYDNESKKNYGSQPPSSSTSLAQYDSNSKKIYGSQPNFNMQYIPREDFPDWWQVRKLKSSSSSEDVASSNQKERNVNHTTSKISWEFPESSSSEEEENLDDYDWFAGNISRSQSEQLLRQKGKEGAFMVRNSSQVGMYTVSLFSKAVNDKKGTVKHYHVHTNAENKLYLAENYCFDSIPKLIHYHQHNSAGMITRLRHPVSTKANKVPDSVSLGNGIWELKREEITLLKELGSGQFGVVQLGKWKGQYDVAVKMIKEGSMSEDEFFQEAQTMMKLSHPKLVKFYGVCSKEYPIYIVTEYISNGCLLNYLRSHGKGLEPSQLLEMCYDVCEGMAFLESHQFIHRDLAARNCLVDRDLCVKVSDFGMTRYVLDDQYVSSVGTKFPVKWSAPEVFHYFKYSSKSDVWAFGILMWEVFSLGKQPYDLYDNSQVVLKVSQGHRLYRPHLASDTIYQIMYSCWHELPEKRPTFQQLLSSIEPLREKDKH
Signal to Noise ratio with BRB1 Peptide (TR-FRET kinase assay; kinase 0.5 nM): 7.1

B6: ROR2 (protein)
chain: VCMCRNKQKASASTPQRRQLMASPSQDMEMPLINQHKQAKLKEISLSAVRFMEELGEDRFGKVYKGHLFGPAPGEQTQAVAIKTLKDKAEGPLREEFRHEAMLRARLQHPNVVCLLGVVTKDQPLSMIFSYCSHGDLHEFLVMRSPHSDVGSTDDDRTVKSALEPPDFVHLVAQIAAGMEYLSSHHVVHKDLATRNVLVYDKLNVKISDLGLFREVYAADYYKLLGNSLLPIRWMAPEAIMYGKFSIDSDIWSYGVVLWEVFSYGLQPYCGYSNQDVVEMIRNRQVLPCPDDCPAWVYALMIECWNEFPSRRPRFKDIHSRLRAWGNLSNYNSSAQTSGASNTTQTSSLSTSPVSNVSNARYVGPKQKAPPFPQPQFIPMKGQIRPMVPPPQLYVPVNGYQPVPAYGAYLPNFYPVQIPMQMAPQQVPPQMVPKPSSHHSGSGSTSTGYVTTAPSNTSMADRAALLSEGADDTQNAPEDGAQSTVQEAEEEEEGSVPETELLGDCDTLQVDEAQVQLEA
Signal to Noise Ratio with BRB1 Peptide (TR-FRET kinase assay; kinase 20 nM): 1

B7: MER (protein)
chain: KRVQETKFGNAFTEEDSELVVNYIAKKSFCRRAIELTLHSLGVSEELQNKLEDVVIDRNLLILGKILGEGEFGSVMEGNLKQEDGTSLKVAVKTMKLDNSSQREIEEFLSEAACMKDFSHPNVIRLLGVCIEMSSQGIPKPMVILPFMKYGDLHTYLLYSRLETGPKHIPLQTLLKFMVDIALGMEYLSNRNFLHRDLAARNCMLRDDMTVCVADFGLSKKIYSGDYYRQGRIAKMPVKWIAIESLADRVYTSKSDVWAFGVTMWEIATRGMTPYPGVQNHEMYDYLLHGHRLKQPEDCLDELYEIMYSCWRTDPLDRPTFSVLRLQLEKLLESLPDVRNQADVIYVNTQLLESSEGLAQGSTLAPLDLNIDPDSIIASCTPRAAISVVTAEVHDSKPHEGRYILNGGSEEWEDLTSAPSAAVTAEKNSVLPGERLVRNGVSWSHSSMLPLGSSLPDELLFADDSSEGSEVLM
Signal to Noise ratio with BRB1 Peptide (TR-FRET kinase assay; kinase 0.25 nM): 12.9

B8: LTK (protein)
chain: KQKKWQGLQEMRLPSPELELSKLRTSAIRTAPNPYYCQVGLGPAQSWPLPPGVTEVSPANVTLLRALGHGAFGEVYEGLVIGLPGDSSPLQVAIKTLPELCSPQDELDFLMEALIISKFRHQNIVRCVGLSLRATPRLILLELMSGGDMKSFLRHSRPHLGQPSPLVMRDLLQLAQDIAQGCHYLEENHFIHRDIAARNCLLSCAGPSRVAKIGDFGMARDIYRASYYRRGDRALLPVKWMPPEAFLEGIFTSKTDSWSFGVLLWEIFSLGYMPYPGRTNQEVLDFVVGGGRMDPPRGCPGPVYRIMTQCWQHEPELRPSFASILERLQYCTQDPDVLNSLLPMELGPTPEEEGTSGLGNRSLECLRPPQPQELSPEKLKSWGGSPLGPWLSSGLKPLKSRGLQPQNLWNPTYRS
Signal to Noise Ratio with BRB1 Peptide (TR-FRET kinase assay; kinase 1 nM): 13.7

B9: MUSK (protein)
chain: CCRRRKQWKNKKRESAAVTLTTLPSELLLDRLHPNPMYQRMPLLLNPKLLSLEYPRNNIEYVRDIGEGAFGRVFQARAPGLLPYEPFTMVAVKMLKEEASADMQADFQREAALMAEFDNPNIVKLLGVCAVGKPMCLLFEYMAYGDLNEFLRSMSPHTVCSLSHSDLSMRAQVSSPGPPPLSCAEQLCIARQVAAGMAYLSERKFVHRDLATRNCLVGENMVVKIADFGLSRNIYSADYYKANENDAIPIRWMPPESIFYNRYTTESDVWAYGVVLWEIFSYGLQPYYGMAHEEVIYYVRDGNILSCPENCPVELYNLMRLCWSKLPADRPSFTSIHRILERMCERAEGTVSV
Signal to Noise Ratio with BRB1 Peptide (TR-FRET kinase assay; kinase 1 nM): 3.1

B10: RON (protein)
chain: SYWWRRKQLVLPPNLNDLASLDQTAGATPLPILYSGSDYRSGLALPAIDGLDSTTCVHGASFSDSEDESCVPLLRKESIQLRDLDSALLAEVKDVLIPHERVVTHSDRVIGKGHFGVVYHGEYIDQAQNRIQCAIKSLSRITEMQQVEAFLREGLLMRGLNHPNVLALIGIMLPPEGLPHVLLPYMCHGDLLQFIRSPQRNPTVKDLISFGLQVARGMEYLAEQKFVHRDLAARNCMLDESFTVKVADFGLARDILDREYYSVQQHRHARLPVKWMALESLQTYRFTTKSDVWSFGVLLWELLTRGAPPYRHIDPFDLTHFLAQGRRLPQPEYCPDSLYQVMQQCWEADPAVRPTFRVLVGEVEQIVSALLGDHYVQLPATYMNLGPSTSHEMNVRPEQPQFSPMPGNVRRPRPLSEPPRPT
Signal to Noise ratio with BRB1 Peptide (TR-FRET kinase assay; kinase 0.25 nM): 3.5

B11: PDGFRa (protein)
chain: KQKPRYEIRWRVIESISPDGHEYIYVDPMQLPYDSRWEFPRDGLVLGRVLGSGAFGKVVEGTAYGLSRSQPVMKVAVKMLKPTARSSEKQALMSELKIMTHLGPHLNIVNLLGACTKSGPIYIITEYCFYGDLVNYLHKNRDSFLSHHPEKPKKELDIFGLNPADESTRSYVILSFENNGDYMDMKQADTTQYVPMLERKEVSKYSDIQRSLYDRPASYKKKSMLDSEVKNLLSDDNSEGLTLLDLLSFTYQVARGMEFLASKNCVHRDLAARNVLLAQGKIVKICDFGLARDIMHDSNYVSKGSTFLPVKWMAPESIFDNLYTTLSDVWSYGILLWEIFSLGGTPYPGMMVDSTFYNKIKSGYRMAKPDHATSEVYEIMVKCWNSEPEKRPSFYHLSEIVENLLPGQYKKSYEKIHLDFLKSDHPAVARMRVDSDNAYIGVTYKNEEDKLKDWEGGLDEQRLSADSGYIIPLPDIDPVPEEEDLGKRNRHSSQTSEESAIETGSSSSTFIKREDETIEDIDMMDDIGIDSSDLVEDSFL
Signal to Noise ratio with BRB1 Peptide (TR-FRET kinase assay; kinase 0.5 nM): 8
